Reference: paper doi:10.1101/2023.03.17.533092 (bioRxiv, 2023)

B1: ADAH14 (VHH)
VHH: QVQLQESGGGLVQAGGSLRLSCAASGSYFFHALMGWFRQAPVKEREFVASITAVPGATYYRRCTDSVKGRFTISRDNAKNTVYLQMNSLKPEDTAVYYCALATHSNRHTPITYWGQGTQVTVSS
B2: ADAH15 (VHH)
VHH: QVQLQESGGGLVQAGGSLRLSCAASGTTYLAANMGWFRQAPGKEREFVAAITFFHNPTVYYADSVKGRFTISRDNAKNTVYLQMNSLKPEDTAVYYCAATVLVRDRIHFSHSIGIRYWGQGTQVTVSS

Legend:
[1] = target: SARS-CoV-2 Wuhan S RBD, biotinylated (SARS-CoV-2 (Wuhan), UniProt P0DTC2, biotin (biotinylated; site not stated))
[2] = target: SARS-CoV-2 spike glycoprotein (S) (SARS-CoV-2 (Wuhan), UniProt P0DTC2)

Binder	binding result [1]	binding result [2]
B1	binds	binds
B2	binds	binds
